Source: patent US7011940

Molecular target: ER peptide mimic
Assay: immunostaining of ER peptide mimic spots on a membrane, colour scored 1-4+

1D5 anti-human estrogen receptor mouse monoclonal antibody
Staining intensity (1-4+): 4 1-4+ scale
